According to patent US20210324359A1, “USE OF GRAM-NEGATIVE LYSIN-ANTIMICROBIAL PEPTIDE (AMP) POLYPEPTIDE CONSTRUCTS IN TREATING ENDOCARDITIS” (priority 2020, published 2021):

Tests used:
P. aeruginosa = test: MIC, modified CLSI broth microdilution in CAA medium without or with […] human serum (Table 4); format: cell-based, Pseudomonas aeruginosa; for CAA/HuS MIC: CAA supplemented with 2.5% human serum
From the text: 2015. […] Clinical and Laboratory Standards Institute, Wayne, Pa.

[1] = tested on: Pseudomonas aeruginosa strain CFS-1292 (meropenem resistant); settings: strain CFS-1292; no added cations
Protocol: The activity of selected GN lysins and constructs in the presence of divalent cations was evaluated, and the impact of divalent cations at physiological concentrations was examined in the MIC assay format.

[2] = tested on: P. aeruginosa strain WC-453; test: Time-kill assay in HEPES or CAA with 25% human serum (Tables 7, 8); format: cell-based, Pseudomonas aeruginosa
Protocol: Exponential phase bacteria were then pelleted and resuspended in 1/5 culture volume of 25 mM HEPES, pH 7.4 before a final adjustment to an optical density corresponding to a McFarland value of 0.5. […] All treatments were incubated at 37° C. with aeration. At time points before the addition of lysin (or buffer control) and at 1 hour and 3 hours intervals thereafter, culture samples were removed for quantitative plating on CAA agar plates.

[3] = tested on: biofilms formed by P. aeruginosa strain ATCC 17646; settings: strain ATCC 17646 biofilm
Protocol: (§1) Biofilms are then washed and treated with e.g., a 2-fold dilution series of the lysin in TSBg at e.g., 37° C. for 24 hours. After treatment, wells are washed, air-dried at e.g., 37° C. and stained with e.g., 0.05% crystal violet for 10 minutes.

P. aeruginosa isolates = test: MIC against a range of isolates in CAA + […] human serum (Table 11); format: cell-based, Pseudomonas aeruginosa
[4] = tested on: Pseudomonas aeruginosa strain CFS-1292 (meropenem resistant); test: MIC in 25% CAA alone, with […] human serum or […] SURVANTA (Table 13); format: cell-based
Protocol: (§2) Materials and methods: MICs were determined by broth microdilution in media supplemented with human serum and pulmonary surfactant ([…]®; Myoderm Clinical Supplies). Minimal biofilm eradicating concentrations (MBECs) were determined using standard methods. […] Fluorescence microscopy was performed after LIVE/DEAD staining (ThermoFisher) and TEM was performed.

[5] = tested on: Pseudomonas aeruginosa biofilm; test: MBEC in CAA supplemented with […] human serum (Table 14); format: cell-based
Protocol: as §1, §2

[6] = tested on: outer membrane of P. aeruginosa (CFS 1292); test: N-phenyl-1-napthylamine (NPN) uptake assay, outer membrane destabilization (Table 15); format: cell-based, Pseudomonas aeruginosa; settings: NPN fluorescence, buffer = 100, lysin 100 μg/well
Protocol: The ability of gram-negative lysins to destabilize the outer membrane of P. aeruginosa was evaluated through the use of an N-phenyl-1-napthylamine (NPN) uptake assay. […] NPN was added to a final concentration of […]. […] Changes in fluorescence were recorded (excitation 1=350 nm; emission 1=420 nm) over two hours.

P. aeruginosa strains = test: Checkerboard synergy with meropenem in 25% CAA and […] human serum (Table 16); format: cell-based, Pseudomonas aeruginosa; settings: for FICI value (Run #1), with meropenem / FICI value (Run #2), with meropenem: 25% CAA and […] human serum
[7] = tested on: carbapenem-resistant P. aeruginosa strains; test: Resensitization of carbapenem-resistant strains, combinations with imipenem or meropenem (Tables 18-22); format: cell-based, Pseudomonas aeruginosa; settings: for FICI: isolate WC-452
Protocol: Such resensitization may be determined by combining the present lysins or lysin-AMP polypeptide constructs with an antibiotic in a checkerboard assay as described herein. Antibiotic-resistant bacteria, such as carbapenem-resistant P. aeruginosa, are added to the lysin or lysin-AMP polypeptide construct combination. […] See Clinical and Laboratory Standards Institute (CLSI), CLSI. […] M100 Performance Standards for Antimicrobial Susceptibility Testing; 29th Edition. Clinical and Laboratory Standards Institute, Wayne, Pa., which is herein incorporated by reference in its entirety.
Up to seven carbapenem-resistant isolates were assessed. […] See Clinical and Laboratory Standards Institute (CLSI), CLSI. […] M100 Performance Standards for Antimicrobial Susceptibility Testing; 29th Edition. Clinical and Laboratory Standards Institute, Wayne, Pa.

B1: GN351: lysin-AMP construct: TAGGTAGG linker and amurin peptide Ecp2 C-terminal to GN316 lysin (SEQ ID NO: 32) (protein)
chain: MAILKIGSKGLEVKNLQTSLNKIGFNLVADGIFGKATDNAVRAVQAGAGLVVDGIAGPKTMYAIRNAGESHQDHLTEADLIDAARELSVDLASIKAVNQVESRGTGFTKSGKIKTLFERHIMYKKLNAKFGQAKANALAQLYPTLVNAKAGGYTGGDAELERLHGAIAIDKDCAYESASYGLFQIMGFNCVICGYDNAEEMFNDFLTGERAQLMAFVKFIKADANLWKALKDKNWAEFARRYNGPAYAQNQYDTKLAAAYKSFSTAGGTAGGARSRRRMSKRSSRRSFRKYAKSHKKNFKARSMRGGIRL
With B1 the “CAA MIC” value (P. aeruginosa; CAA medium, no human serum) was 8000 µg/mL, the “CAA/HuS MIC” value (P. aeruginosa; CAA supplemented with […] human serum) was 125 µg/mL and the “MIC in 25% CAA” value [1] was 1 µg/mL. The “bactericidal activity (CFU decrease of 3-Log10, 3 hours after the addition of lysin)” value ([2]; 10 μg/mL, enumerated lysins in CAA/HuS, general statement for HEPES and CAA/HuS) was “bactericidal activity”, the “CAA/HuS (Log10 CFU/mL), 1 hr” value ([2]; CAA + 25% human serum, lysin 10 μg/ml, 1 hr, WC-453) was 4.6 Log10 CFU/mL and the “CAA/HuS (Log10 CFU/mL), 3 hr” value ([2]; CAA + 25% human serum, lysin 10 μg/ml, 3 hr, WC-453) was <3.7 Log10 CFU/mL. For the same molecule, the MBEC [3] was 1 µg/mL, the “activity against P. aeruginosa isolates in human serum or SURVANTA” value (P. aeruginosa isolates; Tables 11 and 12) was “active against a variety of P. aeruginosa isolates” and the “MIC, CAA + […] Human Serum” value (P. aeruginosa isolates; strain CFS 1109 (ATCC 17646)) was 1 µg/mL. The “MIC, CAA + […] Human Serum” value (P. aeruginosa isolates; strain CFS 1292) was 1 µg/mL, the “MIC, CAA + […] Human Serum” value (P. aeruginosa isolates; strain CFS1539 (PA1)) was 0.5 µg/mL and the “MIC, CAA + […] Human Serum” value (P. aeruginosa isolates; strain CFS 1540 (PA2)) was 0.5 µg/mL. For the same molecule, the “MIC, CAA + […] Human Serum” value (P. aeruginosa isolates; strain CFS 1541 (PA3)) was 0.5 µg/mL, the “MIC, CAA + […] Human Serum” value (P. aeruginosa isolates; strain CFS 1557 (PA19)) was 4 µg/mL and the “MIC, CAA + […] Human Serum” value (P. aeruginosa isolates; strain CFS 1558 (PA20)) was 1 µg/mL. For the same molecule, the “MIC, CAA + […] Human Serum” value (P. aeruginosa isolates; strain CFS 1559 (PA21)) was 2 µg/mL, the “MIC, CAA + […] Human Serum” value (P. aeruginosa isolates; strain CFS 1560 (PA22)) was 2 µg/mL and the “MIC, CAA + […] Human Serum” value (P. aeruginosa isolates; strain CFS 1561 (PA23)) was 2 µg/mL. The “MIC, CAA + […] Human Serum” value (P. aeruginosa isolates; strain CFS 1562 (PA24)) was 2 µg/mL, the “MIC, CAA + […] Human Serum” value (P. aeruginosa isolates; strain CFS 1596 (PA26)) was 1 µg/mL and the “MIC, CAA + […] Human Serum” value (P. aeruginosa isolates; strain CFS 1597 (PA27)) was 0.5 µg/mL. The “MIC, CAA + […] Human Serum” value (P. aeruginosa isolates; strain CFS 1669 (PA41)) was 1 µg/mL, the “MIC, CAA + […] Human Serum” value (P. aeruginosa isolates; strain CFS 1674 (PA46)) was 1 µg/mL and the “MIC, CAA + […] Human Serum” value (P. aeruginosa isolates; strain CFS 1675 (PA47)) was 0.5 µg/mL. The “MIC, CAA + […] Human Serum” value (P. aeruginosa isolates; strain CFS 1766 (ATCC 27853)) was 2 µg/mL, the “MIC in […] Survanta” value [4] was 4 µg/mL and the “MIC in human serum ([…]) in CAA” value [4] was 0.0625 µg/mL. For the same molecule, the “activity in human serum and pulmonary surfactant” value [4] was “active in human serum and pulmonary surfactant”, the “25% CAA MIC” value ([4]; media alone) was 1 and the “MBEC in CAA supplemented with […] human serum” value [5] was 0.5 µg/mL. The “% RFU” value ([6]; 5 minutes) was 381 % RFU, the “% RFU” value ([6]; 10 minutes) was 406 % RFU and the “% RFU” value ([6]; 20 minutes) was 407 % RFU. For the same molecule, the “% RFU” value ([6]; 40 minutes) was 386 % RFU, the “% RFU” value ([6]; 60 minutes) was 383 % RFU and the “% RFU” value ([6]; 100 minutes) was 338 % RFU. For the same molecule, the synergy with meropenem (P. aeruginosa strains; FICI less than or equal to 0.5 = potent synergy) was “exhibited synergy with meropenem”, the “FICI value (Run #1), with meropenem” value (P. aeruginosa strains; strain CFS 1292) was 0.1875 and the “FICI value (Run #2), with meropenem” value (P. aeruginosa strains; strain CFS 1292) was 0.219. The “FICI value (Run #1), with meropenem” value (P. aeruginosa strains; strain CFS 1557 (PA19)) was 0.25, the “FICI value (Run #2), with meropenem” value (P. aeruginosa strains; strain CFS 1557 (PA19)) was 0.292 and the “FICI value (Run #1), with meropenem” value (P. aeruginosa strains; strain CFS 1558 (PA20)) was 0.1562. The “FICI value (Run #2), with meropenem” value (P. aeruginosa strains; strain CFS 1558 (PA20)) was 0.177, the “FICI value (Run #2), with meropenem” value (P. aeruginosa strains; strain CFS 1559 (PA21)) was 0.177 and the “FICI value (Run #2), with meropenem” value (P. aeruginosa strains; strain CFS 1560 (PA22)) was 0.323. For the same molecule, the “FICI value (Run #2), with meropenem” value (P. aeruginosa strains; strain CFS 1561 (PA23)) was 0.240, the “FICI value (Run #2), with meropenem” value (P. aeruginosa strains; strain CFS 1562 (PA24)) was 0.177 and the “FICI value (Run #2), with meropenem” value (P. aeruginosa strains; strain CFS 1766 (ATCC 27853)) was 0.109. For the same molecule, the “resensitization to carbapenems in synergistic combinations” value ([7]; imipenem (IPM) and meropenem (MEM), carbapenem-resistant isolates) was “reductions of IPM and MEM MICS to below breakpoint values”, the FICI ([7]; lysin + imipenem) was 0.156 and the FICI ([7]; lysin + meropenem) was 0.188. The “Antibiotic MIC / Lysin MIC, Alone” value ([7]; vs. WC-452 (Table 22)) was 1.
